Measured values as given in patent US20110166062A1 (INDIANA UNIVERSITY RESEARCH AND TECHNOLOGY, published 2011).
Where no end group is shown, it is not given here. [ ]: non-standard residue; d: D form. The star is where a group is joined. PEG 40 kDa = PEG (40 kDa) covalently attached to Cys; Stearoyl = CCCCCCCCCCCCCCCCCC(=O)*; Palmitoyl = CCCCCCCCCCCCCCCC(=O)*; Myristoyl = CCCCCCCCCCCCCC(=O)*; Octanoyl = CCCCCCCC(=O)*; Aib = CC(C)(N)C(=O)O

T1: GIP receptor (UniProt P48546 22-466)
T1 sequence (looked up): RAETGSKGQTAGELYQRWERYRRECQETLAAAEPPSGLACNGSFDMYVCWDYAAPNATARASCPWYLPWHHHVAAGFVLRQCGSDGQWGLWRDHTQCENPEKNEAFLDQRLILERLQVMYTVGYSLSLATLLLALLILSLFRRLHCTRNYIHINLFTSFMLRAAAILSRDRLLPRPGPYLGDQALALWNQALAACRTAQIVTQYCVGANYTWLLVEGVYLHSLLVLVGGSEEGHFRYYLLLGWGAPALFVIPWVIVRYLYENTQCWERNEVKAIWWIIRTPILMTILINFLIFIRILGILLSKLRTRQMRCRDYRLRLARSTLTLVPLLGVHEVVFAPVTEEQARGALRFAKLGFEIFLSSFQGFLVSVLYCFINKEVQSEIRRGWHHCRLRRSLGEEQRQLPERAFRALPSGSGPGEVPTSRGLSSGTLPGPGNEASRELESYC


Legend:
GIP receptor = molecular target: T1, GIP receptor; test: cell-based or functional assay
glucagon receptor = glucagon receptor (UniProt P47871 26-477, limits assumed); test: cell-based or functional assay
glucagon receptor, sequence (P47871 26-477 limits assumed): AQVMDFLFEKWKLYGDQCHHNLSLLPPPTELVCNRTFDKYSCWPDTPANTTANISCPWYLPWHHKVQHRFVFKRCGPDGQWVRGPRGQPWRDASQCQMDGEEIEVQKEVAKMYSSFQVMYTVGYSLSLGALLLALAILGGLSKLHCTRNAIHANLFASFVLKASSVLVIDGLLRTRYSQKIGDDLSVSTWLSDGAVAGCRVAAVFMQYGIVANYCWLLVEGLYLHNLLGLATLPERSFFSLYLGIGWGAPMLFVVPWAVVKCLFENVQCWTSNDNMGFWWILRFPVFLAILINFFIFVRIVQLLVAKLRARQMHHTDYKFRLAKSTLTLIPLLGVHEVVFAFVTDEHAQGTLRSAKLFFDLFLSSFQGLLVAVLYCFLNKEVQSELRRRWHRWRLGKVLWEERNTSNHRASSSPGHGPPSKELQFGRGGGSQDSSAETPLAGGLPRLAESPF

Binder	EC50 (GIP receptor)	EC50 (glucagon receptor)
Y[Aib]EGTFTSDK(Palmitoyl)SIYLDKQAA[Aib]EFVNWLLAG-NH2 (N-terminus assumed; SMILES CCCCCCCCCCCCCCCC(=O)NCCCC[C@H](NC(=O)[C@H](CC(=O)O)NC(=O)[C@H](CO)NC(=O)[C@@H](NC(=O)[C@H](Cc1ccccc1)NC(=O)[C@@H](NC(=O)CNC(=O)[C@H](CCC(=O)O)NC(=O)C(C)(C)NC(=O)[C@@H](N)Cc1ccc(O)cc1)[C@@H](C)O)[C@@H](C)O)C(=O)N[C@@H](CO)C(=O)N[C@H](C(=O)N[C@@H](Cc1ccc(O)cc1)C(=O)N[C@@H](CC(C)C)C(=O)N[C@@H](CC(=O)O)C(=O)N[C@@H](CCCCN)C(=O)N[C@@H](CCC(N)=O)C(=O)N[C@@H](C)C(=O)N[C@@H](C)C(=O)NC(C)(C)C(=O)N[C@@H](CCC(=O)O)C(=O)N[C@@H](Cc1ccccc1)C(=O)N[C@H](C(=O)N[C@@H](CC(N)=O)C(=O)N[C@@H](Cc1c[nH]c2ccccc12)C(=O)N[C@@H](CC(C)C)C(=O)N[C@@H](CC(C)C)C(=O)N[C@@H](C)C(=O)NCC(N)=O)C(C)C)[C@@H](C)CC) [mt-283]	12.2 pM	
Y[Aib]EGTFTSDK(Myristoyl)SIYLDKQAA[Aib]EFVNWLLAG-NH2 (N-terminus assumed; SMILES CCCCCCCCCCCCCC(=O)NCCCC[C@H](NC(=O)[C@H](CC(=O)O)NC(=O)[C@H](CO)NC(=O)[C@@H](NC(=O)[C@H](Cc1ccccc1)NC(=O)[C@@H](NC(=O)CNC(=O)[C@H](CCC(=O)O)NC(=O)C(C)(C)NC(=O)[C@@H](N)Cc1ccc(O)cc1)[C@@H](C)O)[C@@H](C)O)C(=O)N[C@@H](CO)C(=O)N[C@H](C(=O)N[C@@H](Cc1ccc(O)cc1)C(=O)N[C@@H](CC(C)C)C(=O)N[C@@H](CC(=O)O)C(=O)N[C@@H](CCCCN)C(=O)N[C@@H](CCC(N)=O)C(=O)N[C@@H](C)C(=O)N[C@@H](C)C(=O)NC(C)(C)C(=O)N[C@@H](CCC(=O)O)C(=O)N[C@@H](Cc1ccccc1)C(=O)N[C@H](C(=O)N[C@@H](CC(N)=O)C(=O)N[C@@H](Cc1c[nH]c2ccccc12)C(=O)N[C@@H](CC(C)C)C(=O)N[C@@H](CC(C)C)C(=O)N[C@@H](C)C(=O)NCC(N)=O)C(C)C)[C@@H](C)CC) [mt-282]	13.3 pM	
Y[Aib]EGTFTSDK(Stearoyl)SIYLDKQAA[Aib]EFVNWLLAG-NH2 (N-terminus assumed; SMILES CCCCCCCCCCCCCCCCCC(=O)NCCCC[C@H](NC(=O)[C@H](CC(=O)O)NC(=O)[C@H](CO)NC(=O)[C@@H](NC(=O)[C@H](Cc1ccccc1)NC(=O)[C@@H](NC(=O)CNC(=O)[C@H](CCC(=O)O)NC(=O)C(C)(C)NC(=O)[C@@H](N)Cc1ccc(O)cc1)[C@@H](C)O)[C@@H](C)O)C(=O)N[C@@H](CO)C(=O)N[C@H](C(=O)N[C@@H](Cc1ccc(O)cc1)C(=O)N[C@@H](CC(C)C)C(=O)N[C@@H](CC(=O)O)C(=O)N[C@@H](CCCCN)C(=O)N[C@@H](CCC(N)=O)C(=O)N[C@@H](C)C(=O)N[C@@H](C)C(=O)NC(C)(C)C(=O)N[C@@H](CCC(=O)O)C(=O)N[C@@H](Cc1ccccc1)C(=O)N[C@H](C(=O)N[C@@H](CC(N)=O)C(=O)N[C@@H](Cc1c[nH]c2ccccc12)C(=O)N[C@@H](CC(C)C)C(=O)N[C@@H](CC(C)C)C(=O)N[C@@H](C)C(=O)NCC(N)=O)C(C)C)[C@@H](C)CC) [mt-284]	18.6 pM	
Y[Aib]EGTFTSDYSIYLDKQAA[Aib]EFVNWLLAGGPSSGAPPPSC(PEG 40 kDa)-NH2 [mt-295]		87300 pM
Y[Aib]EGTFTSDYSIYLDKQAA[Aib]EFVNWLLAGGPSSGAPPPSC-NH2 [mt-256]		58900 pM
Y[Aib]QGTFTSDYSIYLDKQAA[Aib]EFVNWLLAGGPSSGAPPPSK-NH2 (N-terminus assumed; SMILES CC[C@H](C)[C@H](NC(=O)[C@H](CO)NC(=O)[C@H](Cc1ccc(O)cc1)NC(=O)[C@H](CC(=O)O)NC(=O)[C@H](CO)NC(=O)[C@@H](NC(=O)[C@H](Cc1ccccc1)NC(=O)[C@@H](NC(=O)CNC(=O)[C@H](CCC(N)=O)NC(=O)C(C)(C)NC(=O)[C@@H](N)Cc1ccc(O)cc1)[C@@H](C)O)[C@@H](C)O)C(=O)N[C@@H](Cc1ccc(O)cc1)C(=O)N[C@@H](CC(C)C)C(=O)N[C@@H](CC(=O)O)C(=O)N[C@@H](CCCCN)C(=O)N[C@@H](CCC(N)=O)C(=O)N[C@@H](C)C(=O)N[C@@H](C)C(=O)NC(C)(C)C(=O)N[C@@H](CCC(=O)O)C(=O)N[C@@H](Cc1ccccc1)C(=O)N[C@H](C(=O)N[C@@H](CC(N)=O)C(=O)N[C@@H](Cc1c[nH]c2ccccc12)C(=O)N[C@@H](CC(C)C)C(=O)N[C@@H](CC(C)C)C(=O)N[C@@H](C)C(=O)NCC(=O)NCC(=O)N1CCC[C@H]1C(=O)N[C@@H](CO)C(=O)N[C@@H](CO)C(=O)NCC(=O)N[C@@H](C)C(=O)N1CCC[C@H]1C(=O)N1CCC[C@H]1C(=O)N1CCC[C@H]1C(=O)N[C@@H](CO)C(=O)N[C@@H](CCCCN)C(N)=O)C(C)C) [mt-280]	14.9 pM	
Y[Aib]QGTFTSDYSIYLDKQAA[Aib]EFVCWLLAG-NH2 (N-terminus assumed; SMILES CC[C@H](C)[C@H](NC(=O)[C@H](CO)NC(=O)[C@H](Cc1ccc(O)cc1)NC(=O)[C@H](CC(=O)O)NC(=O)[C@H](CO)NC(=O)[C@@H](NC(=O)[C@H](Cc1ccccc1)NC(=O)[C@@H](NC(=O)CNC(=O)[C@H](CCC(N)=O)NC(=O)C(C)(C)NC(=O)[C@@H](N)Cc1ccc(O)cc1)[C@@H](C)O)[C@@H](C)O)C(=O)N[C@@H](Cc1ccc(O)cc1)C(=O)N[C@@H](CC(C)C)C(=O)N[C@@H](CC(=O)O)C(=O)N[C@@H](CCCCN)C(=O)N[C@@H](CCC(N)=O)C(=O)N[C@@H](C)C(=O)N[C@@H](C)C(=O)NC(C)(C)C(=O)N[C@@H](CCC(=O)O)C(=O)N[C@@H](Cc1ccccc1)C(=O)N[C@H](C(=O)N[C@@H](CS)C(=O)N[C@@H](Cc1c[nH]c2ccccc12)C(=O)N[C@@H](CC(C)C)C(=O)N[C@@H](CC(C)C)C(=O)N[C@@H](C)C(=O)NCC(N)=O)C(C)C) [mt-257]		211 pM
Y[Aib]QGTFTSDYSIYLDKQAA[Aib]EFVNWLLAGGPSSGAPPPSK(Octanoyl)-NH2 (N-terminus assumed; SMILES CCCCCCCC(=O)NCCCC[C@H](NC(=O)[C@H](CO)NC(=O)[C@@H]1CCCN1C(=O)[C@@H]1CCCN1C(=O)[C@@H]1CCCN1C(=O)[C@H](C)NC(=O)CNC(=O)[C@H](CO)NC(=O)[C@H](CO)NC(=O)[C@@H]1CCCN1C(=O)CNC(=O)CNC(=O)[C@H](C)NC(=O)[C@H](CC(C)C)NC(=O)[C@H](CC(C)C)NC(=O)[C@H](Cc1c[nH]c2ccccc12)NC(=O)[C@H](CC(N)=O)NC(=O)[C@@H](NC(=O)[C@H](Cc1ccccc1)NC(=O)[C@H](CCC(=O)O)NC(=O)C(C)(C)NC(=O)[C@H](C)NC(=O)[C@H](C)NC(=O)[C@H](CCC(N)=O)NC(=O)[C@H](CCCCN)NC(=O)[C@H](CC(=O)O)NC(=O)[C@H](CC(C)C)NC(=O)[C@H](Cc1ccc(O)cc1)NC(=O)[C@@H](NC(=O)[C@H](CO)NC(=O)[C@H](Cc1ccc(O)cc1)NC(=O)[C@H](CC(=O)O)NC(=O)[C@H](CO)NC(=O)[C@@H](NC(=O)[C@H](Cc1ccccc1)NC(=O)[C@@H](NC(=O)CNC(=O)[C@H](CCC(N)=O)NC(=O)C(C)(C)NC(=O)[C@@H](N)Cc1ccc(O)cc1)[C@@H](C)O)[C@@H](C)O)[C@@H](C)CC)C(C)C)C(N)=O) [mt-323]	8.4 pM	
Y[Aib]QGTFTSDYSIYLDKQAA[Aib]EFVC(PEG 40 kDa)WLLAG-NH2 [mt-281]		282 pM
Y[Aib]EGTFTSDYSIYLDKQAA[Aib]EFVNWLLAGGPSSGAPPPSK-NH2 [mt-263]	3.1 pM	3180 pM
Y[Aib]EGTFTSDK(Myristoyl)SIYLDKQAA[Aib]EFVCWLLAGGPSSGAPPPS-NH2 (also: C-terminal amidation listed at position 40 of 39-residue chain) [mt-337]	8 pM	106000 pM
Y[Aib]EGTFTSDKSIYLDKQAA[Aib]EFVNWLLAG-NH2 (N-terminus assumed; SMILES CC[C@H](C)[C@H](NC(=O)[C@H](CO)NC(=O)[C@H](CCCCN)NC(=O)[C@H](CC(=O)O)NC(=O)[C@H](CO)NC(=O)[C@@H](NC(=O)[C@H](Cc1ccccc1)NC(=O)[C@@H](NC(=O)CNC(=O)[C@H](CCC(=O)O)NC(=O)C(C)(C)NC(=O)[C@@H](N)Cc1ccc(O)cc1)[C@@H](C)O)[C@@H](C)O)C(=O)N[C@@H](Cc1ccc(O)cc1)C(=O)N[C@@H](CC(C)C)C(=O)N[C@@H](CC(=O)O)C(=O)N[C@@H](CCCCN)C(=O)N[C@@H](CCC(N)=O)C(=O)N[C@@H](C)C(=O)N[C@@H](C)C(=O)NC(C)(C)C(=O)N[C@@H](CCC(=O)O)C(=O)N[C@@H](Cc1ccccc1)C(=O)N[C@H](C(=O)N[C@@H](CC(N)=O)C(=O)N[C@@H](Cc1c[nH]c2ccccc12)C(=O)N[C@@H](CC(C)C)C(=O)N[C@@H](CC(C)C)C(=O)N[C@@H](C)C(=O)NCC(N)=O)C(C)C) [mt-285]	28 pM	
Y[Aib]EGTFTSDKSIYLDKQAA[Aib]EFVCWLLAGGPSSGAPPPS-NH2 (also: C-terminal amidation listed at position 40 of 39-residue chain) [mt-338]	23.4 pM	295000 pM
